According to article PMC4918322:

Molecular target: PLK1 (UniProt P53350)
Assay: anti-V5 co-immunoprecipitation, PLK1 blot
Conditions: reference: wild-type RSF1-C1; sites S1375

RSF1 C1, 627-1441 (from UniProt Q96T23) S1375A
binding against the reference: lost
